Reference: patent US8088892B2, “Inhibitors of proteins from the Rho-GEF family” (Centre National de la Recherche Scientifique (C.N.R.S.), priority 2002, dated 2012)

target: TrioGEFD2 (Homo sapiens, UniProt O75962); assay: In vitro guanine nucleotide exchange (GEF) assay on RhoA; assay type: biochemical; set-up: using recombinant GST-TrioGEFD2 (a.a. 1848-2298), TrioDH2 (a.a. 1848-2096); made in house; details: 20-fold molar excess (8 μM) inhibitor, 0.4 μM GST-GEFD2, 0.3 μM [3H]GDP-RhoA, 15 min
Method: For that purpose, aptamers, TrioGEFD2 and RhoA are expressed as GST-fusion proteins. RhoA is loaded with ^3H-GDP, and the release of GDP is followed after addition of GEFD2 in presence or in absence of the selected aptamers (as described in Debant et al., 1996).
A 20-fold molar excess (8 μM) of GST-aptamers TRIAPα, TRIAPβ (another TrioGEFD2 binding aptamer), TRIAPγ (another TrioGEFD2 binding aptamer) or the empty thioredoxine (Trx) were pre-incubated with 0.4 μM GST-GEFD2 (left side of FIG. 2A) or 0.4 μM GST-DH2 (right side of FIG. 2A), as indicated, before adding 0.3 μM of [^3H]GDP loaded GST-RhoA. The exchange activity was monitored by the decrease of [^3H]GDP bound-RhoA after 15 min (see Materials and Methods). The amount of [^3H]GDP bound-RhoA incubated without GEF (first bar on the left) was defined as 100% The values and errors bars were calculated from at least three independent experiments.
0.4 μM GST-GEFD2 were incubated with increasing amounts of GST-TRIAPα (grey bars) or GST (black bars), and the exchange assay was then performed on 0.3 μM RhoA, as described in A.
An in vitro guanine nucleotide exchange (GEF) assay was used to test whether the TrioGEFD2-binding aptamers could inhibit the catalytic activity of TrioGEFD2 towards RhoA. For this purpose, the aptamers TRIAPα, TRIAPβ and TRIAPγ (including the Trx gene) were excised from pEG202 as EcoRI/NotI fragments and cloned into pGEX4T1 EcoRI/NotI. The aptamers were then expressed and purified from bacteria as GST fusion proteins, using standard procedures (Smith and Johnson, 1988). GTPase-GST fusion proteins were prepared, loaded with [^3H]GDP and the guanine nucleotide release assays were performed as described (Debant et al., 1996), using recombinant GST-TrioGEFD2 (a.a. 1848-2298), TrioDH2 (a.a. 1848-2096). For each point, 0.3 μM GTPase was mixed with or without 0.4 μM GEF in presence of non-labeled GTP, and the reaction mix was filtered after 0 min and 15 mm reaction at 25° C. The catalytic activity of TrioGEFD2 was thus measured by the decrease of the GTPase-associated radioactivity. The results are expressed as the ratio “exchange after 15 min over exchange after 0 min” (% bound [^3H]GDP-RhoA). To measure the effect of the aptamers on the exchange activity, a 20-fold molar excess of GST-TRIAPs was pre-incubated with GEFD2 (or GEFD1) for 30 min on ice before the exchange assay was carried out. For each experiment, data were obtained in triplicate.

Molecule	Inhibition of TrioGEFD2 exchange activity on RhoA in vitro
TRIAPα 9-33: variant of TRIAPα containing TRIPα 9-33 (SEQ ID NO: 16) inserted into the thioredoxin (protein) MSDKIIHLTDDSFDTDVLKADGAILVDFWAEWCGPICGYNLATLVMLGPSERVFCPLCEPGPCKMIAPILDEIADEYQGKLTVAKLNIDQNPGTAPKYGIRGIPTLLLFKNGEVASATKVGALSKGQLKEFLDANLA	had a reduced activity
TRIAPα 9-36: variant of TRIAPα containing TRIPα 9-36 (SEQ ID NO: 12) inserted into the thioredoxin (protein) MSDKIIHLTDDSFDTDVLKADGAILVDFWAEWCGPICGYNLATLVMLGPSERVFCPLCEPCSSGPCKMIAPILDEIADEYQGKLTVAKLNIDQNPGTAPKYGIRGIPTLLLFKNGEVASATKVGALSKGQLKEFLDANLA	displayed fill inhibitory activity
TRIAPα 9-40: variant of TRIAPα containing TRIPα 9-40 (SEQ ID NO: 8) inserted into the thioredoxin (protein) MSDKIIHLTDDSFDTDVLKADGAILVDFWAEWCGPICGYNLATLVMLGPSERVFCPLCEPCSSDIYEGPCKMIAPILDEIADEYQGKLTVAKLNIDQNPGTAPKYGIRGIPTLLLFKNGEVASATKVGALSKGQLKEFLDANLA	displayed fill inhibitory activity
TRIAPα 9-38: variant of TRIAPα containing TRIPα 9-38 (SEQ ID NO: 10) inserted into the thioredoxin (protein) MSDKIIHLTDDSFDTDVLKADGAILVDFWAEWCGPICGYNLATLVMLGPSERVFCPLCEPCSSDIGPCKMIAPILDEIADEYQGKLTVAKLNIDQNPGTAPKYGIRGIPTLLLFKNGEVASATKVGALSKGQLKEFLDANLA	displayed fill inhibitory activity
TRIAPα 9-42: variant of TRIAPα containing TRIPα 9-42 (SEQ ID NO: 6) inserted into the thioredoxin (protein) MSDKIIHLTDDSFDTDVLKADGAILVDFWAEWCGPICGYNLATLVMLGPSERVFCPLCEPCSSDIYELMGPCKMIAPILDEIADEYQGKLTVAKLNIDQNPGTAPKYGIRGIPTLLLFKNGEVASATKVGALSKGQLKEFLDANLA	did not alter its inhibitory effect
TRIAPα 1-33: variant of TRIAPα containing TRIPα 1-33 (SEQ ID NO: 18) inserted into the thioredoxin (protein) MSDKIIHLTDDSFDTDVLKADGAILVDFWAEWCGPAREGADGAICGYNLATLVMLGPSERVFCPLCEPGPCKMIAPILDEIADEYQGKLTVAKLNIDQNPGTAPKYGIRGIPTLLLFKNGEVASATKVGALSKGQLKEFLDANLA	displayed fill inhibitory activity
TRIAPα 9-34: variant of TRIAPα containing TRIPα 9-34 (SEQ ID NO: 14) inserted into the thioredoxin (protein) MSDKIIHLTDDSFDTDVLKADGAILVDFWAEWCGPICGYNLATLVMLGPSERVFCPLCEPCGPCKMIAPILDEIADEYQGKLTVAKLNIDQNPGTAPKYGIRGIPTLLLFKNGEVASATKVGALSKGQLKEFLDANLA	displayed fill inhibitory activity
